US20050055741, “Plant transcriptional repressor, proteic nuclear factors binding thereto, and uses thereof” (published 2005)

What was measured:
SEBF (recombinant) [1] = molecular target: T1, SEBF (recombinant) (Solanum tuberosum); assay: EMSA; specificity similar to native SEBF; settings: tags: GST fusion expressed in E. coli BL21; GST cleaved with thrombin; label: 32P
T1 chain: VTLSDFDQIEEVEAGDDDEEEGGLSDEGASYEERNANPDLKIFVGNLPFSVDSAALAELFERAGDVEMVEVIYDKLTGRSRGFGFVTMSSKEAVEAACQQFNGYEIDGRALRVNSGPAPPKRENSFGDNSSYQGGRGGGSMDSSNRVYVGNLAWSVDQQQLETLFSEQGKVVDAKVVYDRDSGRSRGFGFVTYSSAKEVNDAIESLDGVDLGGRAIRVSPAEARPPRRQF
Excerpt: (§1) FIGS. 2A, 2B, 2C and 2D show mutational analysis of potato silencing element (SE). FIG. 2A: Schematic representation of the reporter constructs and mutant oligonucleotides used in this study. Reporter constructs contain the PR-10a promoter region from −135 to +136 fused to the bacterial gene uidA encoding […] (GUS). The position of the elicitor response element (ERE), the silencing element (SE) and the TATA box are shown (TATA). The transcriptional start site is indicated by an arrow. The common sequence between the wild-type (WT; SEQ ID NO:45) and mutant oligonucleotides m1 to m5 (SEQ ID NOs:1 to 5) is indicated by dashed lines, and mutated nucleotides are represented by lowercase letters. FIG. 2B: EMSA studies using 10 μg of crude potato tuber nuclear preparation and 20,000 CPM of the ³²P labeled single-stranded CS oligonucleotides presented in FIG. 2A. FIG. 2C: EMSA studies using 10 ng of purified recombinant SEBF and 20,000 CPM of the ³²P labeled single-stranded CS oligonucleotides presented in FIG. 2A. FIG. 2D: The sequence from −52 to −27 of the PR-10a promoter fused to the uidA gene was replaced by the sequences presented in FIG. 2A. The resulting plasmids were electroporated in potato leaf protoplasts and the GUS activity was measured. The histogram represents fold activity to wild type (WT=1). […]

SEBF (recombinant) [2] = molecular target: T1, SEBF (recombinant); assay: EMSA; specificity stated similar to native SEBF; settings: tags: GST fusion expressed in E. coli BL21; GST cleaved with thrombin; label: 32P
Excerpt: as §1

[3] = molecular target: T2, SEBF (affinity purified, 29 and 28 kD bands) (Solanum tuberosum); assay: southwestern; 29 and 28 kD bands each bind; settings: tags: none; label: 32P
T2 chain: T1 chain
Method: FIG. 4 is a picture of a gel showing the purification of SEBF. Coomassie staining of proteins from each step of the purification of SEBF (lanes 1 through 4). The crude nuclear extract (Crude; lane 1) was loaded on a Q-Sepharose™ column. SEBF was eluted at 400 mM NaCl (Q-seph; lane 2) before two rounds of affinity purification (Aff.1, Aff.2; lane 3, lane 4). […] Arrows indicate the two purified bands. Molecular weight markers are indicated on the left.
Both of these proteins were subjected to N-terminal sequence analysis.

SEBF (recombinant) [4] = molecular target: T1, SEBF (recombinant); assay: EMSA; 10 ng recombinant SEBF; settings: tags: GST fusion expressed in E. coli BL21; GST cleaved with thrombin; label: 32P
Excerpt: as §1

Does TCTAGATCGAATTCCGCTCGACCGG (ssDNA) [SE m1] bind (SEBF (recombinant) [1])?
Result: no binding

Does CATGGACTGTCACTTGTTTTTTTTA (ssDNA) [SE m2] bind (SEBF (recombinant) [2])?
Result: binds

Does TCTAGACTGTCACTTGTTTTTTTTA (ssDNA) [PR-10a SE coding strand WT] bind [3]?
Result: binds

Does TCTAGACTGTCACTTGTTTTTTTTA (ssDNA) [PR-10a SE coding strand WT] bind (SEBF (recombinant) [4])?
Result: binds
